# Test system: Escherichia coli TOP10
# Assay: shrunken log2 fold change of peptide-encoding DNA abundance (4.5 h post-induction vs induction); higher = less antimicrobial activity (less host growth inhibition)
# Conditions: time post-induction: 4.5 h; library: site-saturation at positions 5, 18, 19, 20
# 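Note: peptides expressed intracellularly from a pBAD plasmid library in pooled LB shake-flask culture, induced with 0.3% L-arabinose, DNA abundance read by NGS, three biological replicates, DESeq2 with apeglm shrinkage.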
row,Sequence,shrunken log2 fold change
1,RRIRQRPPRLPRPRPRPTSKPRP,-0.189
2,RRIRTRPPRLPRPRPRPSFKPRP,-0.465
3,RRIRTRPPRLPRPRPRPFRQPRP,0.0156
4,RRIRERPPRLPRPRPRPGWHPRP,0.027
5,RRIRARPPRLPRPRPRPTPCPRP,0.323
6,RRIRQRPPRLPRPRPRPNGIPRP,-0.0272
7,RRIRRRPPRLPRPRPRPNLCPRP,0.00272
8,RRIRIRPPRLPRPRPRPPMFPRP,-0.181
9,RRIRKRPPRLPRPRPRPIHLPRP,-0.0911
10,RRIRTRPPRLPRPRPRPLSEPRP,-0.127
11,RRIRTRPPRLPRPRPRPRNPPRP,0.000872
12,RRIRMRPPRLPRPRPRPTFRPRP,-0.091
13,RRIRKRPPRLPRPRPRPNFCPRP,-0.0549
14,RRIRGRPPRLPRPRPRPYMHPRP,-0.355
15,RRIRPRPPRLPRPRPRPNTWPRP,0.272
16,RRIRKRPPRLPRPRPRPTGEPRP,0.954
17,RRIRTRPPRLPRPRPRPTGVPRP,0.077
18,RRIRTRPPRLPRPRPRPAYFPRP,0.0144
19,RRIRHRPPRLPRPRPRPNQRPRP,0.333
20,RRIRRRPPRLPRPRPRPWPFPRP,-0.0442
21,RRIRSRPPRLPRPRPRPYVQPRP,-0.024
22,RRIRPRPPRLPRPRPRPYSKPRP,-0.868
23,RRIRWRPPRLPRPRPRPECTPRP,0.255
24,RRIRQRPPRLPRPRPRPQQFPRP,0.0507
25,RRIRIRPPRLPRPRPRPPGEPRP,0.0604

row,Sequence,shrunken log2 fold change
1,RRIRHRPPRLPRPRPRPVIQPRP,-0.00152
2,RRIRLRPPRLPRPRPRPRATPRP,0.228
3,RRIRRRPPRLPRPRPRPTQAPRP,-0.0717
4,RRIRTRPPRLPRPRPRPCDFPRP,0.042
5,RRIRWRPPRLPRPRPRPVVMPRP,-0.0601
6,RRIRKRPPRLPRPRPRPSDTPRP,0.322
7,RRIRLRPPRLPRPRPRPKDSPRP,-0.139
8,RRIRVRPPRLPRPRPRPNAAPRP,0.0557
9,RRIRWRPPRLPRPRPRPTHVPRP,0.316
10,RRIRRRPPRLPRPRPRPTDVPRP,-0.0348
11,RRIRKRPPRLPRPRPRPADHPRP,0.111
12,RRIRCRPPRLPRPRPRPDFQPRP,-0.294
13,RRIRVRPPRLPRPRPRPYIKPRP,-0.982
14,RRIRIRPPRLPRPRPRPVDTPRP,-0.282
15,RRIRWRPPRLPRPRPRPCAFPRP,0.176
16,RRIRNRPPRLPRPRPRPYKSPRP,-0.00822
17,RRIRHRPPRLPRPRPRPFSFPRP,-0.363
18,RRIRNRPPRLPRPRPRPLDAPRP,0.0657
19,RRIRSRPPRLPRPRPRPCIRPRP,-0.416
20,RRIRGRPPRLPRPRPRPDCEPRP,1.44
21,RRIRKRPPRLPRPRPRPRAPPRP,0.538
22,RRIRDRPPRLPRPRPRPAYTPRP,-0.00595
23,RRIRVRPPRLPRPRPRPCFKPRP,-0.243
24,RRIRKRPPRLPRPRPRPFMAPRP,0.0398
25,RRIRRRPPRLPRPRPRPRWCPRP,0.0597

row,Sequence,shrunken log2 fold change
1,RRIRCRPPRLPRPRPRPSAFPRP,0.426
2,RRIRPRPPRLPRPRPRPLCFPRP,0.354
3,RRIRWRPPRLPRPRPRPQTWPRP,0.223
4,RRIRFRPPRLPRPRPRPYHSPRP,-0.0452
5,RRIRGRPPRLPRPRPRPNPTPRP,0.602
6,RRIRARPPRLPRPRPRPYRPPRP,-0.179
7,RRIRGRPPRLPRPRPRPHVAPRP,0.724
8,RRIRVRPPRLPRPRPRPLCEPRP,-0.131
9,RRIRMRPPRLPRPRPRPTYAPRP,0.0341
10,RRIRIRPPRLPRPRPRPMVVPRP,-0.0948
11,RRIRLRPPRLPRPRPRPEATPRP,0.294
12,RRIRCRPPRLPRPRPRPNFTPRP,-0.158
13,RRIRTRPPRLPRPRPRPGHQPRP,-0.199
14,RRIRARPPRLPRPRPRPVYCPRP,-0.175
15,RRIRDRPPRLPRPRPRPRLQPRP,0.0983
16,RRIRERPPRLPRPRPRPDHIPRP,-0.537
17,RRIRFRPPRLPRPRPRPLEVPRP,0.0238
18,RRIRCRPPRLPRPRPRPMPSPRP,2.8
19,RRIRFRPPRLPRPRPRPACWPRP,0.471
20,RRIRTRPPRLPRPRPRPWIWPRP,-0.0307
21,RRIRSRPPRLPRPRPRPGRFPRP,0.406
22,RRIRSRPPRLPRPRPRPVYWPRP,-0.175
23,RRIRKRPPRLPRPRPRPTPCPRP,0.692
24,RRIRWRPPRLPRPRPRPGVFPRP,0.224
25,RRIRARPPRLPRPRPRPYATPRP,0.0217

row,Sequence,shrunken log2 fold change
1,RRIRCRPPRLPRPRPRPDPLPRP,0.00869
2,RRIRKRPPRLPRPRPRPYQPPRP,-0.191
3,RRIRRRPPRLPRPRPRPGHPPRP,0.237
4,RRIRLRPPRLPRPRPRPDTFPRP,0.0621
5,RRIRVRPPRLPRPRPRPIHPPRP,0.0943
6,RRIRNRPPRLPRPRPRPEYFPRP,-0.0135
7,RRIRGRPPRLPRPRPRPQMVPRP,0.166
8,RRIRIRPPRLPRPRPRPMTLPRP,0.0505
9,RRIRLRPPRLPRPRPRPHRLPRP,0.166
10,RRIRTRPPRLPRPRPRPWWAPRP,-0.134
11,RRIRTRPPRLPRPRPRPYCMPRP,-1.28
12,RRIRHRPPRLPRPRPRPGFWPRP,0.0409
13,RRIRDRPPRLPRPRPRPWTVPRP,-0.168
14,RRIRTRPPRLPRPRPRPVVCPRP,0.0187
15,RRIRERPPRLPRPRPRPDVSPRP,0.0276
16,RRIRRRPPRLPRPRPRPNLKPRP,-0.0818
17,RRIRIRPPRLPRPRPRPHSYPRP,-0.244
18,RRIRERPPRLPRPRPRPDKQPRP,0.0325
19,RRIRVRPPRLPRPRPRPTMRPRP,0.799
20,RRIRIRPPRLPRPRPRPVWIPRP,-0.242
21,RRIRKRPPRLPRPRPRPQWQPRP,0.0827
22,RRIRERPPRLPRPRPRPFRSPRP,-0.0241
23,RRIRCRPPRLPRPRPRPYFCPRP,-0.514
24,RRIRERPPRLPRPRPRPSEVPRP,-0.12
25,RRIRARPPRLPRPRPRPYEGPRP,-0.195

row,Sequence,shrunken log2 fold change
1,RRIRHRPPRLPRPRPRPEPHPRP,0.113
2,RRIRGRPPRLPRPRPRPWNSPRP,-0.00154
3,RRIRKRPPRLPRPRPRPSCHPRP,-0.132
4,RRIRGRPPRLPRPRPRPDICPRP,0.2
5,RRIRNRPPRLPRPRPRPRMVPRP,-0.289
6,RRIRYRPPRLPRPRPRPHGVPRP,-0.261
7,RRIRIRPPRLPRPRPRPVQAPRP,0.0348
8,RRIRSRPPRLPRPRPRPAVHPRP,0.0588
9,RRIRQRPPRLPRPRPRPFQMPRP,-0.214
10,RRIRSRPPRLPRPRPRPQQYPRP,-0.525
11,RRIRGRPPRLPRPRPRPMYVPRP,-0.0802
12,RRIRNRPPRLPRPRPRPLCHPRP,-0.359
13,RRIRMRPPRLPRPRPRPKYCPRP,0.0472
14,RRIRSRPPRLPRPRPRPCCCPRP,-0.000964
15,RRIRVRPPRLPRPRPRPSPMPRP,-0.261
16,RRIRHRPPRLPRPRPRPCPTPRP,-0.258
17,RRIRTRPPRLPRPRPRPFMHPRP,-0.547
18,RRIRKRPPRLPRPRPRPAHYPRP,0.123
19,RRIRGRPPRLPRPRPRPKPWPRP,0.914
20,RRIRDRPPRLPRPRPRPQNCPRP,0.00875
21,RRIRRRPPRLPRPRPRPCLCPRP,-0.00345
22,RRIRKRPPRLPRPRPRPNSKPRP,0.0385
23,RRIRERPPRLPRPRPRPMVVPRP,-0.261
24,RRIRYRPPRLPRPRPRPFLGPRP,-0.0439
25,RRIRVRPPRLPRPRPRPHFEPRP,0.193

row,Sequence,shrunken log2 fold change
1,RRIRYRPPRLPRPRPRPKCEPRP,-0.0192
2,RRIRFRPPRLPRPRPRPWLFPRP,-0.0194
3,RRIRFRPPRLPRPRPRPTMVPRP,-0.129
4,RRIRLRPPRLPRPRPRPECSPRP,0.177
5,RRIRYRPPRLPRPRPRPDQYPRP,-0.292
6,RRIRWRPPRLPRPRPRPDVYPRP,0.00123
7,RRIRVRPPRLPRPRPRPRTMPRP,0.0485
8,RRIRQRPPRLPRPRPRPPDYPRP,0.00906
9,RRIRMRPPRLPRPRPRPRLPPRP,0.805
10,RRIRYRPPRLPRPRPRPPNMPRP,-0.863
11,RRIRMRPPRLPRPRPRPNIEPRP,0.219
12,RRIRKRPPRLPRPRPRPRFSPRP,0.17
13,RRIRQRPPRLPRPRPRPEPYPRP,0.0808
14,RRIRDRPPRLPRPRPRPMWRPRP,0.309
15,RRIRRRPPRLPRPRPRPGFRPRP,0.331
16,RRIRMRPPRLPRPRPRPEKMPRP,1.68
17,RRIRIRPPRLPRPRPRPYHWPRP,-0.275
18,RRIRIRPPRLPRPRPRPNVLPRP,-0.349
19,RRIRIRPPRLPRPRPRPTTNPRP,-0.463
20,RRIRWRPPRLPRPRPRPLKTPRP,0.453
21,RRIRIRPPRLPRPRPRPNVEPRP,-0.325
22,RRIRFRPPRLPRPRPRPYVNPRP,-1.52
23,RRIRLRPPRLPRPRPRPRTEPRP,0.0352
24,RRIRVRPPRLPRPRPRPDKVPRP,-0.332
25,RRIRDRPPRLPRPRPRPYDIPRP,-0.00136

# From the supplement of paper PMC9112550, “Optimization of the antimicrobial peptide Bac7 by deep mutational scanning” (BMC Biology, 2022)
